Measurements from patent US20070276130A1 (CHILDREN S MEDICAL CENTER, published 2007).
Numbering of substitutions follows the chain as printed. Ends that are not written are not given here.

Assays:
[1] = target: VP5CT of rhesus rotavirus (RRV) VP4 (rhesus rotavirus (RRV)) (UniProt P12473); experiment: X-ray crystal structure
[2] = target: T1, DS-1 VP8* core with residues 60-64 mutated to SGSGG (human rotavirus strain DS-1, UniProt P11196 65-223 (Rotavirus A entry)); experiment: two-dimensional 15N-1H HSQC NMR; no change in the chemical shifts of the 15N valines of the peptide
T1 construct: That conversion is mine; also called modified DS-1 VP8* core; unlabeled VP8* core
T1 chain: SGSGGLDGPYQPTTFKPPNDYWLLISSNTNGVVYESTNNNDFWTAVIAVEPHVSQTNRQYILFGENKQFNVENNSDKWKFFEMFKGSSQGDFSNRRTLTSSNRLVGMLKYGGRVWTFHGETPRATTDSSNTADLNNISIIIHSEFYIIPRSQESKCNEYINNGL
From the text: We used nuclear magnetic resonance (NMR) spectroscopy to assay the binding in solution of a peptide based on the leader to the potential peptide binding cleft. […] To avoid competition between the peptide and residues of the authentic N-terminal leader of the unlabeled VP8* core, residues 60-64 of the core were mutated to SGSGG using PCR.

[3] = target: the molecule itself; experiment: X-ray crystal structure (crystal packing)
X-ray crystal structure = target: the molecule itself; experiment: X-ray crystal structure

## VP5CT of rhesus rotavirus (RRV) VP4 (from UniProt P12473 248-525)
[1]
  share of the surface area of each subunit buried by trimer contacts: 25.8%
  surface area of each subunit buried by trimer contacts: 3960 Å2

B1: peptide TVEPVS (DS-1 VP4 residues 60-64 plus a C-terminal serine) (peptide)
peptide: TVEPVS
modifications: also: 15N-labelled on valine, position not given here
notes: also called leader peptide; assayed peptide
[2]
  binding result: no binding

B2: DS-1 VP8* core (residues 60-223 of DS-1 VP4) (other)
chain: T1 chain with S1T, G2V, S3E, G4P, G5V
notes: There are eight molecules in the asymmetric unit of the P1 crystal
[3]
  binding result: binds

B3: RRV VP5* antigen domain (residues 247-479 of rhesus rotavirus VP4) (other)
chain: RAQANEDIVVSKTSLWKEMQYNRDITIRFKFASSIVKSGGLGYKWSEISFKPANYQYTYTRDGEEVTAHTTCSVNGMNDFNFNGGSLPTDFVISRYEVIKENSYVYVDYWDDSQAFRNMVYVRSLAANLNSVICTGGDYSFALPVGQWPVMTGGAVSLHSAGVTLSTQFTDFVSLNSLRFRFRLTVEEPSFSITRTRVSRLYGLPAANPNNGKEYYEVAGRFSLISLVPSNDD
notes: Expressed in Sf-9 cells from a baculovirus with an N-terminal histidine tag and a thrombin site; It crystallised both as a trimer and as a dimer, so copies is left open; also called VP5Ag; VP5* antigen (R247-D479)
X-ray crystal structure
  binding result: binds
